Results taken from publication PMC3266958 (Oncogene, 2011).

Molecular target: purified bovine calmodulin (bovine, UniProt P62157 1-149)
Experiment: ITC

- Kd: 810 nM
B1: FBXL2 (ITC with CaM, data not shown) (natural protein)
chain: MVFSNNDEGLINKKLPKELLLRIFSFLDIVTLCRCAQISKAWNILALDGSNWQRIDLFNFQTDVEGRVVENISKRCGGFLRKLSLRGCIGVGDSSLKTFAQNCRNIEHLNLNGCTKITDSTCYSLSRFCSKLKHLDLTSCVSITNSSLKGISEGCRNLEYLNLSWCDQITKDGIEALVRGCRGLKALLLRGCTQLEDEALKHIQNYCHELVSLNLQSCSRITDEGVVQICRGCHRLQALCLSGCSNLTDASLTALGLNCPRLQILEAARCSHLTDAGFTLLARNCHELEKMDLEECILITDSTLIQLSIHCPKLQALSLSHCELITDDGILHLSNSTCGHERLRVLELDNCLLITDVALEHLENCRGLERLELYDCQQVTRAGIKRMRAQLPHVKVHAYFAPVTPPTAVAGSGQRLCRCCVIL
